Tests used:
[1] = time-lapse imaging after sorbitol release, HeLa; settings: glycan lost; control: EGFP-WT-YTHDF1
[2] = FRAP in cells, NaCl or sorbitol stress; settings: glycan lost; control: EGFP-WT-YTHDF1
[3] = luciferase tethering reporter after 1 h sorbitol, HEK293T; settings: glycan lost; control: N-WT-YTHDF1

B1: YTHDF1: EGFP-YTHDF1-Mut (protein)
parent chain: MSATSVDTQRTKGQDNKVQNGSLHQKDTVHDNDFEPYLTGQSNQSNSYPSMSDPYLSSYYPPSIGFPYSLNEAPWSTAGDPPIPYLTTYGQLSNGDHHFMHDAVFGQPGGLGNNIYQHRFNFFPENPAFSAWGTSGSQGQQTQSSAYGSSYTYPPSSLGGTVVDGQPGFHSDTLSKAPGMNSLEQGMVGLKIGDVSSSAVKTVGSVVSSVALTGVLSGNGGTNVNMPVSKPTSWAAIASKPAKPQPKMKTKSGPVMGGGLPPPPIKHNMDIGTWDNKGPVPKAPVPQQAPSPQAAPQPQQVAQPLPAQPPALAQPQYQSPQQPPQTRWVAPRNRNAAFGQSGGAGSDSNSPGNVQPNSAPSVESHPVLEKLKAAHSYNPKEFEWNLKSGRVFIIKSYSEDDIHRSIKYSIWCSTEHGNKRLDSAFRCMSSKGPVYLLFSVNGSGHFCGVAEMKSPVDYGTSAGVWSQDKWKGKFDVQWIFVKDVPNNQLRHIRLENNDNKPVTNSRDTQEVPLEKAKQVLKIISSYKHTTSIFDDFAHYEKRQEEEEVVRKERQSRNKQ
- other: stress granule disassembly rate [1]: decreases
- other: stress granule dynamics (FRAP recovery) [2]: decreases

B2: YTHDF1: N-YTHDF1-Mut (protein)
parent chain: B1 parent chain
- other: translation restoration after stress [3]: decreases
